These results are taken from US20200157212A1 (Pfizer, published 2020).

Changes are numbered by the printed parent chain.

To fix the notation:
T1: Cynomolgus monkey ROBO2 overexpressed on HEK293 cells (cynomolgus monkey, UniProt Q9HCK4 22-1378 (human entry))
T1 chain: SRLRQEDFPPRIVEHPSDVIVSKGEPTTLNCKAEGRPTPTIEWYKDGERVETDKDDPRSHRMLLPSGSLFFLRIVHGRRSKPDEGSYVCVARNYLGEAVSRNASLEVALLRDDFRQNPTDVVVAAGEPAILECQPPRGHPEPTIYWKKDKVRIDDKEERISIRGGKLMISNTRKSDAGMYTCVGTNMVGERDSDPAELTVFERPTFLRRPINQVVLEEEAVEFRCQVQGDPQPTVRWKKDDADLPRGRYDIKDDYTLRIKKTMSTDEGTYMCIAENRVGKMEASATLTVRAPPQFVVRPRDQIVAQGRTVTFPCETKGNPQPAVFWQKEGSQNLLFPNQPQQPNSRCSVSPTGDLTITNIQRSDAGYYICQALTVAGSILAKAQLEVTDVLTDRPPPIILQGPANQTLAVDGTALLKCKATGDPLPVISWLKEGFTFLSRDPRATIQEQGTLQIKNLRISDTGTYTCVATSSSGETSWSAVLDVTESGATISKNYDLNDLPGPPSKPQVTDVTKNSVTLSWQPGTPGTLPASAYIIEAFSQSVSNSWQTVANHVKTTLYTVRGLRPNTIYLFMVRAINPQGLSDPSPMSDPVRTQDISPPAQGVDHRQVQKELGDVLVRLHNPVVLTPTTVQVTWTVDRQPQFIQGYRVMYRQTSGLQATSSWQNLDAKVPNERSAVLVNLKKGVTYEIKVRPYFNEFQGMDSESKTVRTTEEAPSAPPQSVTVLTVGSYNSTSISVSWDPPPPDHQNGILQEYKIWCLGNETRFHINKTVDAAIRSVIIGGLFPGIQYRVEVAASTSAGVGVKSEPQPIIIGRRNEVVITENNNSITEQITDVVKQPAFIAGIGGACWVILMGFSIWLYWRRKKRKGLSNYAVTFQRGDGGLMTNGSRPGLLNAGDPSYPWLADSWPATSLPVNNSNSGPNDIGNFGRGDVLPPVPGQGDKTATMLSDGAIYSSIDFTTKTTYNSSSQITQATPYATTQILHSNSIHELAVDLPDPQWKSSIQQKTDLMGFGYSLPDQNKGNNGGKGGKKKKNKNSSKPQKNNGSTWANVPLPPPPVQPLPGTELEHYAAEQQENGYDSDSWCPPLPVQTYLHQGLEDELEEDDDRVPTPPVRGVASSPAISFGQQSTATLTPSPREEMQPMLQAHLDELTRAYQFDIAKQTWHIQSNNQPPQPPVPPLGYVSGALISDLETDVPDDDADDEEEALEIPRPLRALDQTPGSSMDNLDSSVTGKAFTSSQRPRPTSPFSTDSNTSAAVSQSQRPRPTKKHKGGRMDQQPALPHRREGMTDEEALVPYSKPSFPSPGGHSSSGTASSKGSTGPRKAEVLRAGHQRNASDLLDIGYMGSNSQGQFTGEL

B1: 93H2 (antibody, human IgG1, kappa, V domains shown)
VH: EVQLVQSGAEVKKPGASVKVSCKASGYTFTGYYMHWVRQAPGQGLEWMGWINPNSGATNFPQKFQGRVTMTRDTSITTAYMDLSRLRSDDTAVYYCARESGDDAFDIWGQGTMVTVSS
VL: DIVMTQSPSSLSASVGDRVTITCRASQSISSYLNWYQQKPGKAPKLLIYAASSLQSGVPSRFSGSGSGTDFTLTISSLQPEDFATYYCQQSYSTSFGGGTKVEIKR
notes: also called parental 93H2; 93H2 mAb
B2: Abcs35 (antibody, human IgG1, kappa)
heavy: EVQLVQSGAEVKKPGASVKVSCKASGYTFTGYYMHWVRQAPGQGLEWMGWINPKNGDTEFPQKFQGRVTMTRDTSITTAYMDLSRLRSDDTAVYYCARESGDDAFDIWGQGTMVTVSSASTKGPSVFPLAPSSKSTSGGTAALGCLVKDYFPEPVTVSWNSGALTSGVHTFPAVLQSSGLYSLSSVVTVPSSSLGTQTYICNVNHKPSNTKVDKKVEPKSCDKTHTCPPCPAPEAAGAPSVFLFPPKPKDTLMISRTPEVTCVVVDVSHEDPEVKFNWYVDGVEVHNAKTKPREEQYNSTYRVVSVLTVLHQDWLNGKEYKCKVSNKALPAPIEKTISKAKGQPREPQVYTLPPSREEMTKNQVSLTCLVKGFYPSDIAVEWESNGQPENNYKTTPPVLDSDGSFFLYSKLTVDKSRWQQGNVFSCSVMHEALHNHYTQKSLSLSPGK
light: DIVMTQSPSSLSASVGDRVTITCRASQSISSYLNWYQQKPGKAPKLLIYAASSLQSGVPSRFSGSGSGTDFTLTISSLQPEDFATYYCQQSVGLFFGGGTKVEIKRTVAAPSVFIFPPSDEQLKSGTASVVCLLNNFYPREAKVQWKVDNALQSGNSQESVTEQDSKDSTYSLSSTLTLSKADYEKHKVYACEVTHQGLSSPVTKSFNRGEC
notes: fully human IgG1; VH of Ab96 with VL of Ab123
B3: Abcs25 (antibody, human IgG1, kappa, V domains shown)
VH: B1 VH with N54K, S55D, A57D, N59E
VL: DIVMTQSPSSLSASVGDRVTITCRASQSISSYLNWYQQKPGKAPKLLIYAASSLQSGVPSRFSGSGSGTDFTLTISSLQPEDFATYYCQQSVGLSFGGGTKVEIKR
notes: chain-shuffled IgG

The target in this test is T1, Cynomolgus monkey ROBO2 overexpressed …. The test is described as follows: flow cytometry, HEK293 cells, average of n = 3. The method, then: Binding of the antibodies was detected using a secondary fluorochrome conjugated anti-human IgG F(ab′)₂ antibody and samples were analyzed on a Fortessa cytometer (BD Biosciences). The fold ROBO2 selectivity was calculated as the geometric mean fluorescence intensity (Geo MFI) with ROBO2 cells/Geo MFI with ROBO1 cells. A fold change higher than 3 was considered to be ROBO2 specific (Table 2, Fold Selectivity). Some affinity matured clones had increased ROBO1 reactivity, for example Abcs 55, CTI-R2-10 and CTIR2-13.
Based upon several criteria, Abcs25 and Abcs35 were selected for further characterization. Using flow cytometry, improvement in the binding EC₅₀ to human ROBO2 relative to the parental 93H2 was evaluated. Starting at 6.7 nM, 11-point, 3-fold dilution series were made for each antibody and used to stain HEK293 overexpressing human ROBO2 as described above for the ROBO2 fold selectivity (Example 2). […] In addition to measuring improved binding to human ROBO2, it was important to ensure that high affinity binding to both cynomolgus monkey ROBO2 and rat ROBO2 was maintained. Using HEK293 cells overexpressing either cynomolgus monkey ROBO2 or rat ROBO2, the relative dose-dependent binding of 93H2, Abcs25 and Abcs35 was evaluated as described above. High affinity binding to both cynomolgus monkey and rat ROBO2 was maintained in Abcs25 and Abcs35 (Table 4). […] Briefly, Abcs35 was immobilized to 300 resonance units (RU) on a CM5 chip. Association of ROBO2 Ig1-Ig2-His (ROBO2) was measured over 5 minutes and dissociation was followed for a period of 10 minutes.
A general note: In flow cytometry, cells or beads pass a laser one at a time.
A word on the EC50: it is the concentration at which the effect is half-maximal. In turn, B1 gave an EC50 of 0.316 nM.
For B2 the value was 0.145 nM; for B3, 0.128 nM.
